Assay results reported in paper PMC8699916, “Synthesis of Human Bone Morphogenetic Protein-2 (hBMP-2) in E. coli Periplasmic Space: Its Characterization and Preclinical Testing” (Cells, 2021).

B1: periplasmic human bone morphogenetic protein-2 (hBMP-2 Biosintesis) (natural protein, UniProt P12643 283-396, looked up)
chain: QAKHKQRKRLKSSCKRHPLYVDFSDVGWNDWIVAPPGYHAFYCHGECPFPLADHLNSTNHAIVQTLVNSVNSKIPKACCVPTELSAISMLYLDENEKVVLKNYQDMVVEGCGCR
notes: authentic form without the initial methionine; monomer ~13 kDa, dimer ~26 kDa; also called authentic hBMP-2; our hBMP-2; source: E. coli W3110 with pλPL-DsbA-BMP-2, periplasmic fluid extracted by osmotic shock
B2: met-hBMP-2 reference preparation from GenScript (natural protein, human)
chain: MQAKHKQRKRLKSSCKRHPLYVDFSDVGWNDWIVAPPGYHAFYCHGECPFPLADHLNSTNHAIVQTLVNSVNSKIPKACCVPTELSAISMLYLDENEKVVLKNYQDMVVEGCGCR
notes: initial methionine typical of the cytoplasmic product, told in words (met-hBMP-2); human bone morphogenetic protein-2; vendor declares dimeric form (~26 kDa); Commercial product; also called hBMP-2 GenScript; GenScript hBMP-2; source: bought: GenScript (cytoplasmic, E. coli-derived)

What was measured:
[1] = target: the molecule itself; test: non-reducing SDS-PAGE with Western blot; 15% gel, non-reducing conditions, semi-dry transfer to nitrocellulose, anti-hBMP-2 rabbit IgG 1:2000; periplasmic fluid of W3110 grown at 30 °C and 42 °C
[2] = target: the molecule itself; test: non-reducing SDS-PAGE; 15% polyacrylamide gel, non-reducing conditions, Coomassie Brilliant Blue G-250 staining; bought reference preparation

| Protein | stoichiometry N [1] | stoichiometry N [2] |
| --- | --- | --- |
| B1 | 2 | – |
| B2 | – | 2 |
